Patent US10456446B2, “Use of human small leucine zipper protein in osteogenesis procedure” (Korea University Research and Business Foundation, priority 2013, dated 2019)

Legend:
sLZIP TG mouse embryos [1] = assay: Cartilage development, alcian blue staining of sLZIP TG mouse embryos on E12.5; assay type: in vivo; conditions: E12.5, compared with wild type
Description: (§1) In order to generate human sLZIP transgenic (TG) mice, sLZIP genes were cloned into a pCMV-flag expression vector. The sLZIP TG mice were generated by Macrogen, Inc (Seoul, Korea). Transgenic founders were mated with wild type C57BL/6 mice to produce F1 heterozygotes. F1-F4 generations were genetically screened for transgenes at an age of 2 weeks old. The following two primers were used to amplify genomic DNA in order to identify wild type and TG mice: 5′-GGACGATGATGACAAGGACT-3′ (SEQ ID NO: 25) and 5′-GTCAGAGGAGTACATGCTGCT-3′(SEQ ID NO: 26).
When a bone is initially developed during an embryo, cartilage is formed and hardened to a bone according to a so-called ossification (or osteogenesis) process. In order to examine whether sLZIP-mediated osteogenesis is associated with cartilage development, an effect of sLZIP in chondrocyte differentiation was examined. For this purpose, ATDC5 cells were temporarily transfected with sLZIP at different contents (0.1 μg to 0.5 μg). Total RNA was extracted from the cells, and an mRNA expression level of a chondrocyte marker was measured using RT-PCR analysis (FIG. 8A) and real-time PCR (FIG. 8B). GAPDH was used as an internal control group. An experiment was repeated three times. […] Total RNA was extracted from the mature osteoclasts, and an mRNA expression level of an osteoclast marker was measured using real-time PCR (FIG. 8D). […]

Runx2 = molecular target: T1, Runx2 (Homo sapiens, UniProt Q13950); assay: Runx2 transcriptional activity, luciferase reporter with 6 copies of Runx2 response elements in 293T cells; assay type: cell-based
T1 construct: expressed in transfected cells; host or cells: 293T
Experimental: Appropriately transfected cells were washed with cold PBS twice, and a reporter lysis buffer (Promega) was used and lysed in a culture dish. Luciferase analysis was performed using a luciferase analysis system (Promega Corporation, Madison, Wis.). A luciferase activity was recorded in Luminometer 20/20^n (Turner BioSystems, Sunnyvale, Calif.) according to instructions of the manufacturer. The luciferase activity was normalized to a β-galactosidase activity. For β-galactosidase analysis, CMV-β-galactosidase was transfected with luciferase reporter genes. All pieces of data were represented as mean±standard deviation of the results from at least three independent experiments.
Therefore, in order to characterize a potential role of sLZIP in the transcriptional activity of Runx2 by inhibiting the transcriptional activity of PPARγ2, the transcriptional activity of Runx2 was examined. For this purpose, 293T cells were temporarily transfected with Runx2 (0.5 μg), β-galactosidase (0.1 μg), 6 copies of Runx2 response elements (0.2 μg) and sLZIP at different contents (0.1 μg to 0.5 μg) (FIG. 7A). PPARγ2 (0.5 μg), β-galactosidase, Runx2, 6 copies of Runx2 response elements and sLZIP (0.5 μg) were expressed in the 293T cells (FIG. 7B). 293T cells were temporarily transfected with HDAC3 (0.5 μg), Runx2, β-galactosidase, 6 copies of Runx2 response elements and sLZIP at different contents (0.25 and 0.5 μg) (FIG. 7C). A promoter activity was measured by luciferase analysis. A luciferase activity was normalized to a β-galactosidase activity and represented as a relative activity (fold change). All experiments were repeated three times and data was represented as mean±standard deviation. A medium of primary MSCs and C3H10T1/2 cells of a human was exchanged with a differentiation medium in which 50 μg/mL of ascorbic acid, 10 mM of β-glycerol phosphate and 10% FBS were contained for 8 days (FIG. 7D). A medium of MEF cells was exchanged with a differentiation medium in which 50 μg/mL of ascorbic acid, 10 mM of β-glycerol phosphate and 10% FBS were contained for 8 days. […]

sLZIP TG mouse embryos [2] = assay: Ossification in vivo, alcian blue and alizarin red staining of sLZIP TG mouse embryos on E17.5; conditions: E17.5, compared with wild type littermate
Description: as §1
Therefore, in order to characterize a potential role of sLZIP in the transcriptional activity of Runx2 by inhibiting the transcriptional activity of PPARγ2, the transcriptional activity of Runx2 was examined. For this purpose, 293T cells were temporarily transfected with Runx2 (0.5 μg), β-galactosidase (0.1 μg), 6 copies of Runx2 response elements (0.2 μg) and sLZIP at different contents (0.1 μg to 0.5 μg) (FIG. 7A). PPARγ2 (0.5 μg), β-galactosidase, Runx2, 6 copies of Runx2 response elements and sLZIP (0.5 μg) were expressed in the 293T cells (FIG. 7B). 293T cells were temporarily transfected with HDAC3 (0.5 μg), Runx2, β-galactosidase, 6 copies of Runx2 response elements and sLZIP at different contents (0.25 and 0.5 μg) (FIG. 7C). A promoter activity was measured by luciferase analysis. […]

[3] = test system: primary MSCs and C3H10T1/2 cells; assay: Osteoblast differentiation in primary MSCs and C3H10T1/2 cells; assay type: cell-based; conditions: differentiation medium for 8 days
Experimental: Primary human mesenchymal stem cells (MSCs), C3H10T1/2, 293T and MEF cells were cultured in a DMEM to which thermally inactivated 10% FBS and penicillin (100 U/mL)/streptomycin (100 μg/mL) were added. All cell types were cultured in a humidified incubator containing CO2 5% under a temperature condition of 37° C. In order to induce osteoblast differentiation, the medium was exchanged with a DMEM in which 50 μg/mL of ascorbic acid, 10 mM of β-glycerophosphate and 10% FBS were contained for 8 days. The differentiation medium was changed once every two days.
C3H10T1/2 and 293T cells were plated in a 12-well culture dish at a density of 2×10^5 cells/well and incubated for 24 hours. Then, according to instructions of the manufacturer, the cells were transfected with a 0.2 μg of reporter genes and 0.1 to 0.5 μg of a laboratory plasmid using Lipofectamine 2000 or Genefectine. After 24 hours, the cells were cultured in a serum-free DMEM with or without 10 nM of rosiglitazone. siRNAs were prepared using sLZIP and HDAC target sequences (Table 1). […]
Therefore, in order to characterize a potential role of sLZIP in the transcriptional activity of Runx2 by inhibiting the transcriptional activity of PPARγ2, the transcriptional activity of Runx2 was examined. […] A promoter activity was measured by luciferase analysis. […]

T1 sequence (Q13950 whole entry, species assumed): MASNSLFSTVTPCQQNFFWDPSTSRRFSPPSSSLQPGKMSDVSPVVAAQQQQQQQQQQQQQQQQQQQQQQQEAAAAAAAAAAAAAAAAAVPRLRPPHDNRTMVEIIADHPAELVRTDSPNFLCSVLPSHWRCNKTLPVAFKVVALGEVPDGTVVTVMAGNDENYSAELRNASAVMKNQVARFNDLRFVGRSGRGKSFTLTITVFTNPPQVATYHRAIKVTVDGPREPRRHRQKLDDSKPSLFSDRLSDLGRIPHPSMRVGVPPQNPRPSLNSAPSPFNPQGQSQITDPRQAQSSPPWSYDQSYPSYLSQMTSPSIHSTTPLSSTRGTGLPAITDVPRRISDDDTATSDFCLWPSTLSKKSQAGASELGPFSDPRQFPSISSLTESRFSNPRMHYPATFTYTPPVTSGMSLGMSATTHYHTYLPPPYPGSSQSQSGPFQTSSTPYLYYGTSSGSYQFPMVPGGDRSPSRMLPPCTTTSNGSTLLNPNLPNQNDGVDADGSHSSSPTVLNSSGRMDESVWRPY

- transcriptional activity of Runx2 (Runx2; PPARγ2 0.5 μg co-expressed, sLZIP 0.5 μg): restored the activity of Runx2
- increase of the transcriptional activity of Runx2 (factor) (Runx2; sLZIP 0.1 μg to 0.5 μg): about 4
B1: sLZIP: human small leucine-zipper protein, isoform of LZIP, 354 amino acids, no transmembrane domain, GenBank FJ263669, SEQ ID NO: 1 (protein, listed as Homo sapiens)
chain: MELELDAGDQDLLAFLLEESGDLGTAPDEAVRAPLDWALPLSEVPSDWEVDDLLCSLLSPPASLNILSSSNPCLVHHDHTYSLPRETVSMDLESESCRKEGTQMTPQHMEELAEQEIARLVLTDEEKSLLEKEGLILPETLPLTKTEEQILKRVRRKIRNKRSAQESRRKKKVYVGGLESRVLKYTAQNMELQNKVQLLEEQNLSLLDQLRKLQAMVIEISNKTSSSSMYSSDTRGSLPAEHGVLSRQLRALPSEDPYQLELPALQSEVPKDSTHQWLDGSDCVLQAPGNTSCLLHYMPQAPSAEPPLEWPFPDLFSEPLCRGPILPLQANLTRKGGWLPTGSPSVILQDRYSG
- cartilage development of leg and tail (sLZIP TG mouse embryos [1]): no difference
- transcriptional activity of Runx2 (Runx2; HDAC3 0.5 μg co-expressed, sLZIP 0.25 and 0.5 μg): restored the transcriptional activity of Runx2
- ossification of skull and limb (sLZIP TG mouse embryos [2]): further promoted ossification
- osteoblast differentiation [3]: increased osteoblast differentiation
